Experimental data as given in patent publication US20240083986A1 (published 2024).

T1: Celery (Api g 1, MyBiosource, Cat #MBS1171376) (Celery, UniProt P49372 1-154, limits assumed)
T1 construct: Bought reagent
T1 sequence (looked up): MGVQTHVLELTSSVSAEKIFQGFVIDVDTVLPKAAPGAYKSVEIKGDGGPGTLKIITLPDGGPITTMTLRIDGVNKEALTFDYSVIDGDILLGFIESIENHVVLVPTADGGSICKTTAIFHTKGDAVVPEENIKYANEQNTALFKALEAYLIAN

T2: European Hornbeam (Car b 1 isoform 2, MyBiosource, Cat #MBS1043940) (European Hornbeam, UniProt P38950 2-160, limits assumed)
T2 construct: Bought reagent
T2 sequence (looked up): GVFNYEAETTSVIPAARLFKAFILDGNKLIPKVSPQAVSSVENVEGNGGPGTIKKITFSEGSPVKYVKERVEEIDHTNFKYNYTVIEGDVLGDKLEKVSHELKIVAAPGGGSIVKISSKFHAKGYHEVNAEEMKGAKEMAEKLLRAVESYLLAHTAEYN

T3: European Hornbeam (Car b 1 isoform 1A & 1B, MyBiosource, Cat #MBS1200018) (European Hornbeam, UniProt P38949 2-160)
T3 construct: Bought reagent
T3 sequence (looked up): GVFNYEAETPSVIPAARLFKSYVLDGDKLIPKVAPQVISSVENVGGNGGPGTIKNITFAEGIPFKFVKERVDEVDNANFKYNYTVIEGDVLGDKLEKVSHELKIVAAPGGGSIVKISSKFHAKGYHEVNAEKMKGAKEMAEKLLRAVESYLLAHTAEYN

T4: Alder (Aln g 1, MyBiosource, Cat #MBS1041484) (Alder, UniProt P38948 2-160, limits assumed)
T4 construct: Bought reagent
T4 sequence (looked up): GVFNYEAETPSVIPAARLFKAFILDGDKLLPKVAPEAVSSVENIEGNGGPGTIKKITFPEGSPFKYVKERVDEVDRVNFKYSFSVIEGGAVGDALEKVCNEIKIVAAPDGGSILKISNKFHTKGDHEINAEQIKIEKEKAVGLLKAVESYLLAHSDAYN

T5: Apple (Mal d 1, MyBiosource, Cat #MBS1224919) (Apple, UniProt P43211 2-159, limits assumed)
T5 construct: Bought reagent
T5 sequence (looked up): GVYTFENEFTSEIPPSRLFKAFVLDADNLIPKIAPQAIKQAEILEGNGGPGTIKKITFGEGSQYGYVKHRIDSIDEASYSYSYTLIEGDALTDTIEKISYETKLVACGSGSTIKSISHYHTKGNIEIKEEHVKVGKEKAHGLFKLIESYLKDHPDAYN

T6: CHO produced recombinant Bet v 1 containing a S85A mutation with a C-terminal myc-myc hexahistidine tag … (Betula verrucosa (birch))
T6 chain: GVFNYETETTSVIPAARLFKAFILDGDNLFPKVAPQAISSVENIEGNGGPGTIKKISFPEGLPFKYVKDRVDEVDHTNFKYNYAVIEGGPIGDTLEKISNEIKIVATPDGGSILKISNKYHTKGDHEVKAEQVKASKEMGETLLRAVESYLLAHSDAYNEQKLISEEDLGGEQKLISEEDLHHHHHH


Assays:
[1] = target: T1, Celery (Api g 1, MyBiosource, Cat …); assay: SPR, mAb captured via anti-hFc, 25 C
Experimental: (§1) Equilibrium dissociation constants (KD) for different related allergens binding to purified anti-Bet v 1 monoclonal antibodies were determined using a real-time surface plasmon resonance biosensor (SPR-Biacore) on a Biacore 4000 instrument. All binding studies were performed in 10 mM HEPES, 150 mM NaCl, 3 mM EDTA, and 0.05% v/v surfactant Tween-20, pH 7.4 (HBS-ET) running buffer at 25° C. […] Binding studies were performed on the following related allergens: Alder (Aln g 1, MyBiosource, Cat #MBS1041484), Apple (Mal d 1, MyBiosource, Cat #MBS1224919), Carrot (Dau c 1.2, MyBiosource, Cat #MBS1212920), Celery (Api g 1, MyBiosource, Cat #MBS1171376), Celery (Api g 2, MyBiosource, Cat #MBS1047880), European Hornbeam (Car b 1 isoform 1A & 1B, MyBiosource, Cat #MBS1200018), European Hornbeam (Car b 1 isoform 2, MyBiosource, Cat #MBS1043940), Hazel (Cor A 1, MyBiosource, Cat #MBS5304600), and White Oak (Que a 1, MyBiosource, Cat #MBS1258822). […] Association (kₐ) and dissociation (kd) rate constants were determined by fitting the real-time binding sensorgrams to a 1:1 binding model with mass transport limitation using Scrubber 2.0c curve-fitting software. Binding dissociation equilibrium constants (KD) and dissociative half-lives (t½) were calculated from the kinetic rate constants as:

[2] = target: T2, European Hornbeam (Car b 1 isoform 2, …); assay: SPR, mAb captured via anti-hFc, 25 C
Experimental: as §1

[3] = target: T3, European Hornbeam (Car b 1 isoform 1A & …); assay: SPR, mAb captured via anti-hFc, 25 C
Experimental: as §1

[4] = target: T4, Alder (Aln g 1, MyBiosource, Cat …); assay: SPR, mAb captured via anti-hFc, 25 C
Experimental: as §1

[5] = target: T5, Apple (Mal d 1, MyBiosource, Cat …); assay: SPR, mAb captured via anti-hFc, 25 C
Experimental: as §1

[6] = target: T6, CHO produced recombinant Bet v 1 …; assay: SPR, mAb captured via anti-hFc, 25 C
Experimental: (§2) Equilibrium dissociation constants (KD) for natural Bet v 1 binding to purified anti-Bet v 1 monoclonal antibodies were determined using a real-time surface plasmon resonance biosensor (SPR-Biacore) on a Biacore 4000 instrument. All binding studies were performed in 10 mM HEPES, 150 mM NaCl, 3 mM EDTA, and 0.05% v/v surfactant Tween-20, pH 7.4 (HBS-ET) running buffer at 25° C. and 37° C. […] Association (kₐ) and dissociation (kd) rate constants were determined by fitting the real-time binding sensorgrams to a 1:1 binding model with mass transport limitation using Scrubber 2.0c curve-fitting software. Binding dissociation equilibrium constants (KD) and dissociative half-lives (t½) were calculated from the kinetic rate constants as:

[7] = target: T6, CHO produced recombinant Bet v 1 …; assay: SPR, mAb captured via anti-hFc, 37 C
Experimental: as §2

| Binder | 100 nM Analyte Bound (RU) [1] | binding result [1] | Kd [2] | 100 nM Analyte Bound (RU) [3] | Kd [3] | t½ [3] | 100 nM Analyte Bound (RU) [4] | binding result [4] | 100 nM Analyte Bound (RU) [5] | 100 nM Analyte Bound (RU) [2] | 100 nM natural Bet v 1- MMH Bound (RU) [6] | Kd [6] | koff [6] | kon [6] | t½ [6] | 100 nM natural Bet v 1-MHH Bound (RU) [7] | Kd [7] | koff [7] | kon [7] | t½ [7] | also measured |
| --- | --- | --- | --- | --- | --- | --- | --- | --- | --- | --- | --- | --- | --- | --- | --- | --- | --- | --- | --- | --- | --- |
| H4H16946P (antibody, human IgG4, V domains shown, Fully human antibody with human IgG4 Fc (H4H prefix)) VH: EVQLVESGGGLVQPGGSLRLSCVASGFTFSNYDMNWVRQAPGEGLEWISYISYSDHNIYYIDSVKGRFTISRDNAKNSLYLQMNSLRAEDTAIYYCAREALASSSFDYWGQGTLVTVSS VL: EIVMTQSPATLSVSPGERVTLSCRASQSVSGNLAWYQQKPGQAPRLLIYSASTGATGVPARFSGSGSGTEFTLTISSLQSEDFALYYCQQYNKWPRTIGQGTKVEIK | 1 RU | no binding (tested: 100 nM) | 179 nM | 63 RU | 168 nM | 0.5 min | 2 RU | no binding (tested: 100 nM) | 0 RU | 63 RU | 83 RU | 0.348 nM | 0.000141 s⁻¹ | 405000 M⁻¹ s⁻¹ | 82 min | 97 RU | 0.655 nM | 0.000395 s⁻¹ | 603000 M⁻¹ s⁻¹ | 29 min | koff [2]: 0.0138 s⁻¹; kon [2]: 76900 M⁻¹ s⁻¹; t½ [2]: 0.8 min; koff [3]: 0.024 s⁻¹; kon [3]: 143000 M⁻¹ s⁻¹; binding result [5]: no binding (tested: 100 nM) |
| H4H16943P (antibody, human IgG4, V domains shown, Fully human antibody with human IgG4 Fc (H4H prefix)) VH: EVQLVESGGGLVQPGGSLRLSCTASGFMSSMYWMSWVRQAPGKGLEWVSNIKQDGTEKNYVESVKGRFTISRDNAKNSLYLQINSLRGEDTAVYYCARDLYSSSSGYYYYGLDVWGQGTTVTVSS VL: DIVMTQSPLSLPVTPGEPASISCRSSQSLLHSNKYNYLDWYLQKPGQSPQLLIYLSSNRASGVPDRFSGSGSGTEFTLKISRVEAEDVGIYYCMQALHTPLTFGGGTKVEIK | 0 RU | no binding (tested: 100 nM) | 0.335 nM | 26 RU | 380 nM | 0.2 min | 1 RU | no binding (tested: 100 nM) | -1 RU | 183 RU | 0 RU |  |  |  |  | 0 RU |  |  |  |  | koff [2]: 0.000371 s⁻¹; kon [2]: 1.11e+06 M⁻¹ s⁻¹; t½ [2]: 31 min; koff [3]: 0.0578 s⁻¹; kon [3]: 152000 M⁻¹ s⁻¹; binding result [6]: no binding (tested: 100 nM) |
| H4H16960P (antibody, human IgG4, V domains shown, Fully human antibody with human IgG4 Fc (H4H prefix)) VH: QLQLQESGPGLVRPSETLSLTCTVSGGSISSSNYWWGWIRQPPGKGLEWIGSIYYSGITYYNPSLKSRVTISADTSKDQFSLKLRSVTAADTAVYYCAKLEWLRLDFWGQGTTVTVSS VL: DIQMTQSPSSVSASVGDRVTITCRASQGISSWLVWYQQKPGKVPKLLIYAASSLQSGVPLRFSGSGSGTDFTLTISSLQPEDFATYYCQQAKSFPLTFGQGTRLEIK | 0 RU | no binding (tested: 100 nM) |  | 4 RU |  |  | 29 RU |  | 1 RU | 1 RU | 64 RU | 0.789 nM | 0.000443 s⁻¹ | 562000 M⁻¹ s⁻¹ | 26 min | 72 RU | 2.01 nM | 0.00177 s⁻¹ | 879000 M⁻¹ s⁻¹ | 6.5 min | binding result [2]: no binding (tested: 100 nM); binding result [3]: no binding (tested: 100 nM); Kd [4]: 147 nM; koff [4]: 0.0332 s⁻¹; kon [4]: 226000 M⁻¹ s⁻¹; t½ [4]: 0.3 min; binding result [5]: no binding (tested: 100 nM) |
| H4H16950P (antibody, human IgG4, V domains shown, Fully human antibody with human IgG4 Fc (H4H prefix)) VH: QVQLVQSGAEVKKPGASVKVSCKTSGYTFTNYGITWVRQAPGQGLEWMGWISAYNGNTNYAQNVQGRVTMTTDTSTSTAYMEVRSLRSDDTAVYYCARRSSMLHFQHWGQGTLVTVSS VL: DIVMTQSPDSLAVSLGERATINCKSSQHVLYDSSNENYLAWFQQKPGQPPKLLIYWASTRESGVPDRFSGSGSGTDFTLTISSLQAEDVAVYYCQQYSSAPYTFGQGTKLEIK | 0 RU | no binding (tested: 100 nM) |  | -1 RU |  |  | 15 RU |  | -1 RU | 0 RU | 70 RU | 2.21 nM | 0.000335 s⁻¹ | 151000 M⁻¹ s⁻¹ | 35 min | 83 RU | 5.81 nM | 0.00125 s⁻¹ | 215000 M⁻¹ s⁻¹ | 9.2 min | binding result [2]: no binding (tested: 100 nM); Kd [4]: 175 nM; koff [4]: 0.016 s⁻¹; kon [4]: 91200 M⁻¹ s⁻¹; t½ [4]: 0.7 min |

Continued, in another order:

| 100 nM Analyte Bound (RU) [1] | binding result [1] | Kd [2] | 100 nM Analyte Bound (RU) [3] | Kd [3] | t½ [3] | 100 nM Analyte Bound (RU) [4] | binding result [4] | 100 nM Analyte Bound (RU) [5] | 100 nM Analyte Bound (RU) [2] | 100 nM natural Bet v 1- MMH Bound (RU) [6] | Kd [6] | koff [6] | kon [6] | t½ [6] | 100 nM natural Bet v 1-MHH Bound (RU) [7] | Kd [7] | koff [7] | kon [7] | t½ [7] | Binder | also measured |
| --- | --- | --- | --- | --- | --- | --- | --- | --- | --- | --- | --- | --- | --- | --- | --- | --- | --- | --- | --- | --- | --- |
| 1 RU | no binding (tested: 100 nM) | 0.617 nM | 161 RU | 1.2 nM | 34 min | 5 RU | no binding (tested: 100 nM) | 3 RU |  |  |  |  |  |  |  |  |  |  |  | H4H16992P (antibody, human IgG4 S228P, kappa, V domains shown, human IgG4 Fc; also called REGN5713; MAB1) VH: QVQLQESGPGLVKPSETLSLTCSVSGGSITNYFWTWIRQSPGKGLEWIGYIYYSGGTNYNPSLKSRVTISIDTSKNQFSLNMNSVTAADTAVYYCAGSYYYGVDVWGQGTTVTVSS VL: EIVLTQSPATLSLSPGERATLSCRASQSIKSFLAWYRQKPGQAPRLLIYDASNRPTGIPARFSGSGSGTDFTLTINSLESEDFAVYFCQQRNNWPFTFGPGTKVDIKR | binding result [5]: no binding (tested: 100 nM) |
| 0 RU | no binding (tested: 100 nM) | 564 nM | 1 RU |  |  | 41 RU |  | 25 RU | 23 RU | 58 RU | 9.48 nM | 0.00386 s⁻¹ | 407000 M⁻¹ s⁻¹ | 3 min | 60 RU | 18.6 nM | 0.012 s⁻¹ | 648000 M⁻¹ s⁻¹ | 1 min | H4H16971P (antibody, human IgG4, V domains shown, Fully human antibody with human IgG4 Fc (H4H prefix)) VH: QVQLVESGGGVVQPGRSLRLSCAASGFTFSSYGLHWVRQAPGKGLEWVAVISDDGSYKFYADSMKGRFTISRDNSKNTLYLQMNSLRAEDTAVYYCAKDRGRSGWYYFDYWGQGTLVTVSS VL: not shown | koff [2]: 0.146 s⁻¹; kon [2]: 259000 M⁻¹ s⁻¹; t½ [2]: 0 min; binding result [3]: no binding (tested: 100 nM); Kd [4]: 126 nM; koff [4]: 0.0118 s⁻¹; kon [4]: 93000 M⁻¹ s⁻¹; t½ [4]: 1 min; Kd [5]: 494 nM; koff [5]: 0.0795 s⁻¹; kon [5]: 161000 M⁻¹ s⁻¹; t½ [5]: 0.2 min |
| -1 RU |  |  | -1 RU |  |  | 0 RU | no binding (tested: 100 nM) | -2 RU | 0 RU | 0 RU |  |  |  |  | -1 RU |  |  |  |  | H4H16967P (antibody, human IgG4, V domains shown, Fully human antibody with human IgG4 Fc (H4H prefix)) VH: QVQLVESGGGVVQPGRSLRLSCAASGFTFSSYGMHWFRQAPGKGLEWVGVIWSDGSDKKYADSVKGRFTISRDNSKNTLYLLMNSLRDDDTAVYHCAREGGFLYSSSSHFDYWGQGTLVTVSS VL: AIQMTQSPSSLSASVGDRVTITCRTSQGIRNDLGWYQQKPGKAPKLLIFAASSLQSGVPSRFSGSGSGTDFTLTISSLQPEDFAIYYCLQDYKYPFTFGGGTKVEIK | binding result [2]: no binding (tested: 100 nM) |
